Laboratory results taken from article PMC8646365.

Target: cancer-testis antigen Ny-ESO-1 peptide on HLA-A*02:01 (human)
Test: NFAT-luciferase, TCR-KO CD8+ Jurkat

Substance: 1G4_a95LY TCR
- EC50 of peptide: 50 pM
